Experiments:
Asp85 = Asp85 (UniProt position 98, WARYADWLFTT); details: cited from earlier work
[1] = target: Organic Lake Phycodnavirus rhodopsin II (Organic Lake Phycodnavirus); assay: cross-linking; glutaraldehyde (10%), DDM-solubilized multimeric SEC fraction, 2 mg/ml protein, 8 h, 4 °C, read by SDS-PAGE
[2] = target: Organic Lake Phycodnavirus rhodopsin II (Organic Lake Phycodnavirus); assay: cross-linking; glutaraldehyde (10%), monomeric fraction reconstituted into POPC/POPG (4:1 by weight; POPC:POPS in another paragraph) liposomes, 1 mg/ml protein, 8 h, read by SDS-PAGE
[3] = target: Organic Lake Phycodnavirus rhodopsin II (Organic Lake Phycodnavirus); assay: crystal structure; in meso crystallization in monoolein from the monomeric fraction, 0.2 M sodium malonate pH 4.6, 15% PEG 550 MME, 22 °C; space group P2_(1), five molecules in the asymmetric unit
[4] = target: Organic Lake Phycodnavirus rhodopsin II (Organic Lake Phycodnavirus); assay: SEC
[5] = target: T1, Organic Lake Phycodnavirus rhodopsin II (OLPVRII) (Organic Lake phycodnavirus, UniProt Z9UQ29F7D0); assay: X-ray crystal structure […] A, in meso; UV-Vis absorption; type: binding; details: covalent; Schiff base to Lys195; crystals from 0.2 M sodium malonate pH 4.6; spectra in DDM
T1 construct: expressed in E. coli SE1 or C41(DE3); monomeric and pentameric fractions in DDM

[6] = target: OLPVRII triple mutant E26A/R36A/W203A (Organic Lake Phycodnavirus); assay: SEC

Bacteriorhodopsin (bR) (Halobacterium salinarum)
pKa (Asp85): 2.7

Organic Lake Phycodnavirus rhodopsin II (natural protein)
stoichiometry N [1]: 5 | stoichiometry N [2]: 5 | stoichiometry N [3]: 5 | pentamer:monomer ratio in the elution profile (pentamer:monomer) [4]: 4 | stoichiometry N [4]: 5

CC1=C(/C=C/C(C)=C/C=C/C(C)=C/C=O)C(C)(C)CCC1 [all-trans-retinal]
X-ray crystal structure 1.9 A, in meso; UV-Vis absorption [5]: The retinal cofactor is covalently bound to Lys195 through the Schiff base (RSB)

OLPVRII triple mutant E26A/R36A/W203A (natural protein)
pentamer:monomer ratio in the elution profile (pentamer:monomer) [6]: 1 | stoichiometry N [6]: 5

— PMC6821725, “Unique structure and function of viral rhodopsins” (Nature Communications, 2019)
